Data reported in patent publication US20200024322A1 (Eli Lilly, published 2020).
Numbered stars: 1 amine (or outer) side, 2 acyl side, 3 side chain; on linkers, the order of the positions; unused ones are H or OH. Square brackets hold non-standard residues; d marks the D form. Side chains are listed from the residue outwards. Ends that are not written are not given here. * marks the point of attachment. C18 diacid = O=C(O)CCCCCCCCCCCCCCCCC(=O)*; αMePhe(2-F) = C[C@](N)(Cc1ccccc1F)C(=O)O; γGlu = O=C(O)[C@H](CCC(=O)[*:2])N[*:1]; αMeL = CC(C)C[C@](C)(N)C(=O)O; AEEA = NCCOCCOCC(=O)O; Aib = CC(C)(N)C(=O)O

Tests used:
[1] = target: T1, human gastric inhibitory peptide receptor (GIPR) (human, UniProt P48546 22-466); experiment: cell-based or functional assay
T1 sequence (looked up): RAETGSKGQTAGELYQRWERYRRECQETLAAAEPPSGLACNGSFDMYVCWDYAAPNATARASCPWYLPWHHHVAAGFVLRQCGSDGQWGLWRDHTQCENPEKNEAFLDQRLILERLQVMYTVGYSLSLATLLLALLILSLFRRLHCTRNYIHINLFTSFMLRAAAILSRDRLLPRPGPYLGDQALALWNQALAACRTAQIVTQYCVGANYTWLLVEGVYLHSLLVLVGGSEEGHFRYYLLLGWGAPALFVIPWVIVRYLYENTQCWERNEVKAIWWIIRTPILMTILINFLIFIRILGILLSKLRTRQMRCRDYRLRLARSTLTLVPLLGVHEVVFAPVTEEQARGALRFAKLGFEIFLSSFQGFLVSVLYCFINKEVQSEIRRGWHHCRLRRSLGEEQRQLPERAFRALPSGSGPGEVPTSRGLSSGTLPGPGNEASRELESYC

[2] = target: human GLP-1 receptor (GLP-1R) (human, UniProt P43220 24-463); experiment: cell-based or functional assay
human glucagon receptor = target: T2, human glucagon receptor (human, UniProt P47871 26-477); experiment: [125I]-Gcg competition SPA, hGcgR membranes
T2 construct: whole, on cells; also called hGcgR; GcgR
T2 sequence (P47871 26-477): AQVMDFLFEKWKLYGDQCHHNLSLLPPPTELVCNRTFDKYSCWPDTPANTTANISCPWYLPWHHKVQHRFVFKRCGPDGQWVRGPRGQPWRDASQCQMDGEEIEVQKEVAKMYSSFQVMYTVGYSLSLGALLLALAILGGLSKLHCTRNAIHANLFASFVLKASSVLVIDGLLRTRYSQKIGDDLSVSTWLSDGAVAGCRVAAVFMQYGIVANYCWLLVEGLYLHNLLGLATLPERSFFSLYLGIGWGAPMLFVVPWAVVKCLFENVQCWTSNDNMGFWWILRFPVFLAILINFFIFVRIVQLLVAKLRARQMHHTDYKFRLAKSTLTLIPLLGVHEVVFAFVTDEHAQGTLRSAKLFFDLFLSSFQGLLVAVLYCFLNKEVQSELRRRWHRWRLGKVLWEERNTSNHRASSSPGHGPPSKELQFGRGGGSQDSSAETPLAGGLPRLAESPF

human GLP-1 receptor = target: T3, human GLP-1 receptor (human, UniProt P43220 24-463); experiment: [125I]-GLP-1 competition SPA, hGLP-1R membranes
T3 construct: whole, on cells; also called hGLP-1R; hGLP1R
Method in brief: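 Kᵢ values are geometric means (SEM) over replicates run on separate days, derived from IC₅₀ of four-parameter curve fits. Buffer: HEPES 25 mM pH 7.4 with CaCl₂ 2.5 mM, MgCl₂ 1 mM, bacitracin 0.1%, TWEEN-20 0.003%, EDTA-free protease inhibitors.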

human GIP receptor = target: T4, human GIP receptor (human, UniProt P48546 22-466); experiment: [125I]-GIP competition SPA, hGIPR membranes
T4 construct: whole, on cells; also called hGIPR; hGIP-R
T4 sequence (looked up): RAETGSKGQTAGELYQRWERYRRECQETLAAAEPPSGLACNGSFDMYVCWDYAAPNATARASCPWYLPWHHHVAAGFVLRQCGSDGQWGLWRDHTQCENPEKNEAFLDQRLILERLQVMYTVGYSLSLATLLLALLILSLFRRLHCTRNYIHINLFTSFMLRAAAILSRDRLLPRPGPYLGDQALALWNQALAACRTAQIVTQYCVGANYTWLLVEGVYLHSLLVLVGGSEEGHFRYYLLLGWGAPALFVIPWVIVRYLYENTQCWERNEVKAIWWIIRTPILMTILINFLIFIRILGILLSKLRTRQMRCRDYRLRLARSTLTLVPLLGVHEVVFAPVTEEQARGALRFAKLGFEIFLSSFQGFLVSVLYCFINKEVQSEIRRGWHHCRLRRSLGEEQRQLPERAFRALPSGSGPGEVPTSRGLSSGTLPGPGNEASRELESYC

[3] = target: T5, human GLP-1 receptor (GLP-1R) (human), P43220; experiment: cell-based or functional assay
T5 chain: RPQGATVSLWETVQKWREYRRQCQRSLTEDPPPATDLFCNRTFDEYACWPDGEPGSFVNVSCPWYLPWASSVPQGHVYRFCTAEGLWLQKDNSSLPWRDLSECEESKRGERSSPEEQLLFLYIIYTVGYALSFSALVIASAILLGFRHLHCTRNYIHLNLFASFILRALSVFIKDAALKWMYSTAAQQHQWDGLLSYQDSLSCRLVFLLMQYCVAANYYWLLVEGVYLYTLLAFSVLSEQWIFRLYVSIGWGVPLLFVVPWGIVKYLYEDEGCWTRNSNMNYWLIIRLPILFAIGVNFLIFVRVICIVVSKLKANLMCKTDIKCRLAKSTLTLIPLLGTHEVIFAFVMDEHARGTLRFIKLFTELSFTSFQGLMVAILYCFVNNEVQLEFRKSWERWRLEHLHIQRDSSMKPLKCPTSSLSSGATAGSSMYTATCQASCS

[4] = target: T6, human gastric inhibitory peptide receptor (GIPR) (human), P48546; experiment: cell-based or functional assay
T6 chain: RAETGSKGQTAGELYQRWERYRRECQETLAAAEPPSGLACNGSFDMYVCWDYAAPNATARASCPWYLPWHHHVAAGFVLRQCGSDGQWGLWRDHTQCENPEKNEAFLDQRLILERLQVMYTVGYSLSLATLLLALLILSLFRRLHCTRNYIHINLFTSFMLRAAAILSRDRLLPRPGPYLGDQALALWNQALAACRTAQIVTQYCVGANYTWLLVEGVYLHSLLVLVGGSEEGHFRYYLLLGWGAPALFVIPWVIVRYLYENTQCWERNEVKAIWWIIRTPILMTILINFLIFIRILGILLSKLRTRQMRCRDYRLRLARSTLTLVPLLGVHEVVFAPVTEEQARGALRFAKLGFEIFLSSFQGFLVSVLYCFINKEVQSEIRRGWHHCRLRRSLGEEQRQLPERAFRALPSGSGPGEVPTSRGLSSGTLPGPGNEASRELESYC

B1: (D-Tyr)-Aib-EGTFTSDYSI-αMeL-LD-Orn-K((2-[2-(2-Amino-ethoxy)-ethoxy]-acetyl)2-(γ-Glu)-CO-(CH2)16-CO2H)AQ-Aib-AFIE-αMeY-LIAGGPSSGAPPPS-NH2 (peptide)
peptide: XXEGTFTSDYSIXLDXKAQXAFIEXLIAGGPSSGAPPPS
modifications: D-Tyr1; Aib2; αMeL13; Orn16; K17 conjugated to (2-[2-(2-Amino-ethoxy)-ethoxy]-acetyl)2-(γ-Glu)-CO-(CH2)16-CO2H; Aib20; αMeY25; C-terminal amide (NH2)
hGIPR cAMP EC50 ratio [1]: 0.976 | hGLP1R cAMP EC50 ratio [2]: 0.199

B2: Example 336 (peptide)
peptide: XXEGTXTSDYSIXLDKKAQXAFIEYLIEGGPSSGAPPPS
modifications: D-Tyr1; Aib2; αMeF(2F)6; αMeL13; K17((2-[2-(2-Amino-ethoxy)-ethoxy]-acetyl)2-(γ-Glu)-CO-(CH2)18-CO2H); Aib20; C-terminal NH2
Ki (human glucagon receptor): 17.1 nM | Ki (human GLP-1 receptor): 2.44 nM | Ki (human GIP receptor): 0.0277 nM

B3: Example 329 (peptide)
peptide: XXEGTXTSDYSILLDKKAQXAFIEYLIEGGPSSGAPPPS
modifications: D-Tyr1; Aib2; αMeF6; K17((2-[2-(2-Amino-ethoxy)-ethoxy]-acetyl)2-(γ-Glu)-CO-(CH2)18-CO2H); Aib20; C-terminal NH2
Ki (human glucagon receptor): 17 nM | Ki (human GLP-1 receptor): 3.28 nM | Ki (human GIP receptor): 0.0439 nM

B4: (D-Tyr)-Aib-EGTFTSDYSI-αMeL-LD-Orn-K((2-[2-(2-Amino-ethoxy)-ethoxy]-acetyl)2-(γ-Glu)-CO-(CH2)18-CO2H)AQ-Aib-AFIE-αMeY-LIAGGPSSGAPPPS-NH2 (peptide)
peptide: XXEGTFTSDYSIXLDXKAQXAFIEXLIAGGPSSGAPPPS
modifications: D-Tyr1; Aib2; αMeL13; Orn16; K17 conjugated to (2-[2-(2-Amino-ethoxy)-ethoxy]-acetyl)2-(γ-Glu)-CO-(CH2)18-CO2H; Aib20; αMeY25; C-terminal amide (NH2)
hGIPR cAMP EC50 ratio [1]: 0.598 | hGLP1R cAMP EC50 ratio [2]: 0.074

B5: (D-Tyr)-Aib-EGTFTSDYSI-αMeL-LD-Orn-K((2-[2-(2-Amino-ethoxy)-ethoxy]-acetyl)2-(γ-Glu)-CO-(CH2)16-CO2H)AQ-Aib-AFV-(D-Glu)-YLIAGGPSSGAPPPS-NH2 (peptide)
peptide: XXEGTFTSDYSIXLDXKAQXAFVXYLIAGGPSSGAPPPS
modifications: D-Tyr1; Aib2; αMeL13; Orn16; K17 conjugated to (2-[2-(2-Amino-ethoxy)-ethoxy]-acetyl)2-(γ-Glu)-CO-(CH2)16-CO2H; Aib20; D-Glu24; C-terminal amide (NH2)
hGIPR cAMP EC50 ratio [1]: 0.347 | hGLP1R cAMP EC50 ratio [2]: 0.0303

B6: (D-Tyr)-Aib-EGTFTSDYSI-αMeL-LDKK((2-[2-(2-Amino-ethoxy)-ethoxy]-acetyl)-(γ-Glu)-CO-(CH2)18-CO2H)AQ-Aib-EFIEYLIAGGPSSGAPPPS-NH2 (peptide)
peptide: XXEGTFTSDYSIXLDKKAQXEFIEYLIAGGPSSGAPPPS
modifications: D-Tyr1; Aib2; αMeL13; K17 conjugated to (2-[2-(2-Amino-ethoxy)-ethoxy]-acetyl)-(γ-Glu)-CO-(CH2)18-CO2H; Aib20; C-terminal amide (NH2)
hGIPR cAMP EC50 ratio [1]: 0.793 | hGLP1R cAMP EC50 ratio [2]: 0.142

B7: (D-Tyr)-Aib-EGTFTSDYSI-αMeL-LDKK((2-[2-(2-Amino-ethoxy)-ethoxy]-acetyl)2-(γ-Glu)-CO-(CH2)18-CO2H)AQ-Aib-AFV-(D-Glu)-YLIAGGPSSGAPPPS-NH2 (peptide)
peptide: XXEGTFTSDYSIXLDKKAQXAFVXYLIAGGPSSGAPPPS
modifications: D-Tyr1; Aib2; αMeL13; K17 conjugated to (2-[2-(2-Amino-ethoxy)-ethoxy]-acetyl)2-(γ-Glu)-CO-(CH2)18-CO2H; Aib20; D-Glu24; C-terminal amide (NH2)
hGIPR cAMP EC50 ratio [1]: 0.261 | hGLP1R cAMP EC50 ratio [2]: 0.0259

B8: (D-Tyr)-Aib-EGTFTSDYSI-αMeL-LDKK((2-[2-(2-Amino-ethoxy)-ethoxy]-acetyl)2-(γ-Glu)-CO-(CH2)16-CO2H)AQ-Aib-AFIE-αMeY-LIAGGPSSGAPPPS-NH2 (peptide)
peptide: XXEGTFTSDYSIXLDKKAQXAFIEXLIAGGPSSGAPPPS
modifications: D-Tyr1; Aib2; αMeL13; K17 conjugated to (2-[2-(2-Amino-ethoxy)-ethoxy]-acetyl)2-(γ-Glu)-CO-(CH2)16-CO2H; Aib20; αMeY25; C-terminal amide (NH2)
hGIPR cAMP EC50 ratio [1]: 0.734 | hGLP1R cAMP EC50 ratio [2]: 0.159

B9: (D-Tyr)-Aib-EGTFTSDYSI-αMeL-LD-Orn-K((2-[2-(2-Amino-ethoxy)-ethoxy]-acetyl)2-(D-(γ-Glu)-CO-(CH2)16-CO2H)AQ-Aib-AFI-Glu)-YLIAGGPSSGAPPPS-NH2 (peptide)
peptide: XXEGTFTSDYSIXLDXKAQXAFIXYLIAGGPSSGAPPPS
modifications: D-Tyr1; Aib2; αMeL13; Orn16; K17 conjugated to (2-[2-(2-Amino-ethoxy)-ethoxy]-acetyl)2-(γ-Glu)-CO-(CH2)16-CO2H; Aib20; C-terminal amide (NH2)
hGIPR cAMP EC50 ratio [1]: 0.835 | hGLP1R cAMP EC50 ratio [2]: 0.146

B10: (D-Tyr)-Aib-EGTFTSDYSI-αMeL-LDKK((2-[2-(2-Amino-ethoxy)-ethoxy]-acetyl)2-(γ-Glu)-CO-(CH2)18-CO2H)AQ-Aib-AFIE-αMeY-LIAGGPSSGAPPPS-NH2 (peptide)
peptide: XXEGTFTSDYSIXLDKKAQXAFIEXLIAGGPSSGAPPPS
modifications: D-Tyr1; Aib2; αMeL13; K17 conjugated to (2-[2-(2-Amino-ethoxy)-ethoxy]-acetyl)2-(γ-Glu)-CO-(CH2)18-CO2H; Aib20; αMeY25; C-terminal amide (NH2)
hGIPR cAMP EC50 ratio [1]: 0.784 | hGLP1R cAMP EC50 ratio [2]: 0.155

B11: (D-Tyr)-Aib-EGTFTSDYSI-αMeL-LD-Orn-K((2-[2-(2-Amino-ethoxy)-ethoxy]-acetyl)2-(γ-Glu)-CO-(CH2)16-CO2H)AQ-Aib-EFIEYLIAGGPSSGAPPPS-NH2 (peptide)
peptide: XXEGTFTSDYSIXLDXKAQXEFIEYLIAGGPSSGAPPPS
modifications: D-Tyr1; Aib2; αMeL13; Orn16; K17 conjugated to (2-[2-(2-Amino-ethoxy)-ethoxy]-acetyl)2-(γ-Glu)-CO-(CH2)16-CO2H; Aib20; C-terminal amide (NH2)
hGIPR cAMP EC50 ratio [1]: 0.109 | hGLP1R cAMP EC50 ratio [2]: 0.299

B12: Example 360 (peptide)
peptide: XXEGTFTSDYSIXLDXKAQXAFVEYLIEGGPSSGAPPPS
modifications: D-Tyr1; Aib2; αMeL13; Orn16; K17((2-[2-(2-Amino-ethoxy)-ethoxy]-acetyl)2-(γ-Glu)-CO-(CH2)18-CO2H); Aib20; C-terminal NH2
Ki (human glucagon receptor): 485 nM | Ki (human GLP-1 receptor): 1.74 nM | Ki (human GIP receptor): 0.128 nM

B13: Example 346 (peptide)
peptide: XXEGTFTSDYSIXLDXKAQXAFIEYLIAGGPSSGAPPPS
modifications: D-Tyr1; Aib2; αMeL13; Orn16; K17((2-[2-(2-Amino-ethoxy)-ethoxy]-acetyl)2-(γ-Glu)-CO-(CH2)18-CO2H); Aib20; C-terminal NH2
Ki (human glucagon receptor): 310 nM | Ki (human GLP-1 receptor): 1.67 nM | Ki (human GIP receptor): 0.0559 nM

B14: Example 180 (peptide)
peptide: Y[Aib]EGT[αMePhe(2-F)]TSDHSI[αMeL]LDEK([AEEA-AEEA-γGlu-C18 diacid])AQ[Aib]HFI[dE]YLIEGG-NH2
modifications: not fully specified
hGLP1R cAMP EC50 ratio [3]: 0.0212 | hGLP1R cAMP Rel EC50 [3]: 2.16 nM | hGIPR cAMP EC50 ratio [4]: 0.133 | hGIPR cAMP Rel EC50 [4]: 0.79 nM

B15: Example 179 (peptide)
peptide: Y[Aib]EGT[αMePhe(2-F)]TSDHSI[αMeL]LDEK([AEEA-AEEA-γGlu-C18 diacid])AQ[Aib]HFI[dE]YLIEGGPSSG-NH2
modifications: not fully specified
hGLP1R cAMP EC50 ratio [3]: 0.0169 | hGLP1R cAMP Rel EC50 [3]: 2.7 nM | hGIPR cAMP EC50 ratio [4]: 0.0575 | hGIPR cAMP Rel EC50 [4]: 1.83 nM
